{"source": "patent US20210292392A1", "about": "(TSB THERAPEUTICS BEIJING, published 2021)", "key": {"[1]": {"molecular_target": "T1, full length spike (S) protein of SARS-CoV-2 (SARS-CoV-2, UniProt P0DTC2 14-1273)", "experiment": "cell-based or functional assay"}, "[2]": {"molecular_target": "T1, full length spike (S) protein of …", "experiment": "cell-based or functional assay", "remark": "listed apart in the source"}, "[3]": {"molecular_target": "recombinant RBD of the spike protein of SARS-CoV-2 (residues Arg319-Phe541) (SARS-CoV-2, UniProt P0DTC2 319-541)", "experiment": "SPR, RBD on CM5 chip"}, "[4]": {"molecular_target": "spike protein of live SARS-CoV-2 (SARS-CoV-2, UniProt P0DTC2 14-1273)", "experiment": "cell-based or functional assay"}, "[5]": {"molecular_target": "spike (S) protein of live SARS-CoV-2 (SARS-CoV-2, UniProt P0DTC2 14-1273)", "experiment": "cell-based or functional assay"}, "[6]": {"molecular_target": "full length spike (S) protein of SARS-CoV-2 on pseudovirus (SARS-CoV-2, UniProt P0DTC2 14-1273)", "experiment": "cell-based or functional assay"}, "[7]": {"molecular_target": "spike protein on live SARS-CoV-2 (SARS-CoV-2, UniProt P0DTC2 14-1273)", "experiment": "cell-based or functional assay"}}}
{"binder": "P5A-2E1 (antibody, human IgG1, lambda, V domains shown) VH: EVQLVQSGAEVKKPGESLKISCKGSGYSFTSYWIGWVRQMPGKGLEWMGIIYPGDSDTRYSPSFQGQVTISADKSISTAYLQWSSLKASDTAMYYCAQTSVTRNWFDPWGQGTLVTVSS VL: SYVLTQPPSVSVAPGKTARITCGGNNIGSKSVHWYQQKPGQAPVLVIYYDSDRPSGIPERFSGSNSGNTATLTISRVEAGDEADYYCQVWDSSSDHVVFGGGTKLTVLG", "values": [{"measurement": "IC50, pseudovirus neutralization", "setting": "[1]", "result": 6.97, "unit": "µg/mL"}]}
{"binder": "P1A-1C10 (antibody, V domains shown, human IgG1, kappa) VH: QVQLVQSGAEVKNPGSSVKVSCKAGGGTSSFYDINWVRQAPGQGLEWIGKIIPRLDIADYAQKSQGRVTITADKSTSTVYLELSSLKSDDTAVYFCARGRPGSEWAYGPFDLWGQGTLVTVSS VL: DIQMTQSPSTLSASVGDRVTITCRASQSSRAWLAWYQQKPGKAPKLLISKASSLESGVPSRFSGSGYGTEFTLTISSLQPDDSATYYCHQYNSSPFTFGPGTKVQIKR", "values": [{"measurement": "IC50, Pesudovirus neutralization", "setting": "[2]", "result": 21.5, "unit": "µg/mL"}, {"measurement": "Kd", "setting": "[3]", "result": 8.48, "unit": "nM"}]}
{"binder": "P5A-1D1 (antibody, V domains shown) VH: EVQLVESGGGLIQPGGSLRLSCAASGLTVSSNYMSWVRQAPGKGLEWVSVIYSGGSTYYADSVKGRFTISRDNSKNTLYLQMNSLRAEDTAVYYCARDLYYYGMDVWGQGTTVTVST VL: DIQLTQSPSFLSASVGDRVTITCRASQGISSYLAWYQQKPGKAPKLLIYAASTLQSGVPSRFSGSGSGTDFTLTISSLQPEDFATYYCQQLNSYPTFGQGTRLEIKR", "values": [{"measurement": "Live virus IC50", "setting": "[4]", "result": 0.0189, "unit": "µg/mL"}]}
{"binder": "P2C-1C10 (antibody, V domains shown) VH: QVQLVQSGAEVKKPGSSVKVSCKASGGTFSSYAIIWVRQAPGQGLEWMGGIIPIFGTANYAQKFQGRVTITADESTSTAYMELSSLRSEDTAVYYCARVVTGYYFDYWGQGTLVTVSS VL: EIVLTQSPATLSLSPGERATLSCRASQSVSSYLAWYQQKPGQAPRLLIYDASNRATGIPARFSGSGSGTDFTLTISSLEPEDFAVYYCQQRSNWPSFGQGTKLEIKR", "values": [{"measurement": "Live virus IC50", "setting": "[5]", "result": 11.1, "unit": "µg/mL"}, {"measurement": "Live virus IC80", "setting": "[5]", "result": "> 50", "unit": "µg/mL"}, {"measurement": "Pseudovirus IC50", "setting": "[6]", "result": 2.62, "unit": "µg/mL"}, {"measurement": "Pseudovirus IC80", "setting": "[6]", "result": 4.64, "unit": "µg/mL"}]}
{"binder": "P2C-1A3 (antibody, V domains shown) VH: QVQLVESGGGLVKPGGSLRLSCAASGFTFSDYYMSWIRQAPGKGLEWVSYISSSGSTIYYADSVKGRFTISRDNAKNSLYLQMNSLRAEDTAVYYCARDFSHQQLVPSWGQGTLVTVSS VL: not shown", "note": "[P2C-1A3, listing 1 of 2 here]", "values": [{"measurement": "IC50, live SARS-CoV-2 focus reduction neutralization test (FRNT)", "setting": "[7]", "result": 0.28, "unit": "µg/mL"}]}
{"binder": "P2C-1A3 (antibody, V domains shown) VH: QVQLVESGGGLVKPGGSLRLSCAASGFTFSDYYMSWIRQAPGKGLEWVSYISSSGSTIYYADSVKGRFTISRDNAKNSLYLQMNSLRAEDTAVYYCARDFSHQQLVPSWGQGTLVTVSS VL: not shown", "note": "[P2C-1A3, listing 2 of 2 here]", "values": [{"measurement": "Live virus IC50", "setting": "[5]", "result": 0.283, "unit": "µg/mL"}, {"measurement": "Live virus IC80", "setting": "[5]", "result": 1.46, "unit": "µg/mL"}, {"measurement": "Pseudovirus IC50", "setting": "[6]", "result": 0.62, "unit": "µg/mL"}, {"measurement": "Pseudovirus IC80", "setting": "[6]", "result": 5.94, "unit": "µg/mL"}]}
